How the values were obtained:
[1] = target: T1, Melbournevirus histone doublet MV-H2B-H2A (MEL_369) (Melbournevirus, UniProt A0A097I2B5 1-269); experiment: cryo-EM structure
T1 sequence (looked up): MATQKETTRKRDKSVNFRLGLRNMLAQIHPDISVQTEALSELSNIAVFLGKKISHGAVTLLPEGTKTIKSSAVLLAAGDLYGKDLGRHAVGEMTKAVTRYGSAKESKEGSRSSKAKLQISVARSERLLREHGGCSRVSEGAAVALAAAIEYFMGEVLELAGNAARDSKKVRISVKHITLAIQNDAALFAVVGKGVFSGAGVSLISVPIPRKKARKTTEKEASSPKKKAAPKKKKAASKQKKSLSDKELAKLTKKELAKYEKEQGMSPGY

cryo-EM structure = target: the molecule itself; experiment: cryo-EM structure

B1: Melbournevirus histone doublet MV-H4-H3 (MEL_368) (natural protein, UniProt A0A097I2D0 1-216, looked up)
chain: MSKAGKKVKAQQHGHLADHVSVGETQIPKASTQHLLRKAGSLSAAGDTEVPIRGFVHMKLHKLVQKSLLAMQLAKRKTIMKSDVKKAAELMHLPVFAIPTKDSGAKGSVFLSCRQKGAGSAGTGSETNSQEVRSQMKSTCLIIPKERFRTMAKEISKKEGHDVHIAEAALDMLQVIVESCTVRLLEKALVITYSGKRTRVTSKDIETAFMLEHGPL
Does B1 bind [1]?
Result: binds

Does B1 bind (cryo-EM structure)?
Result: binds
